29 molecules from patent publication US20250230247A1 (DREN BIO, published 2025) can be followed below.

Substitutions are numbered along the chain they refer to.

As usually defined, the EC50 is the concentration at which the effect is half-maximal.

Sequences and labels used below:
T1: human Dectin-1 (biosensor tests of Tables 3, 4A and 9; construct not stated) (human, UniProt Q9BXN2 66-247, limits assumed)
T1 construct: also called hDectin-1
T1 sequence (looked up): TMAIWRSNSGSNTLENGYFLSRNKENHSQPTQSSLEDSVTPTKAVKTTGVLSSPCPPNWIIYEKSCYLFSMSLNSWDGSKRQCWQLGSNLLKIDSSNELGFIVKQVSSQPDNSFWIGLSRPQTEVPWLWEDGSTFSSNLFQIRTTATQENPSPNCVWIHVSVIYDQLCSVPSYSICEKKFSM

T2: human Dectin-1 isoform A (human, UniProt Q9BXN2 1-247)
T2 construct: also called hDectin-1a; Dectin-1 on HEK-Blue hDectin-1a cells
T2 sequence: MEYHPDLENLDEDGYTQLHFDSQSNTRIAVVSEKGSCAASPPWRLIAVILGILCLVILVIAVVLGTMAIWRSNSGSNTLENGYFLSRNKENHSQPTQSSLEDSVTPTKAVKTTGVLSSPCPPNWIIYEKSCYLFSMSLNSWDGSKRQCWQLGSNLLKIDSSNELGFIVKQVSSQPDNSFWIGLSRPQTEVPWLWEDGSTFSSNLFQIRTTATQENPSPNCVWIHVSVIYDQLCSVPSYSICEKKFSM

B1: 2M24A.1.23 (Fab, V domains shown)
VH: QVQLVQSGAEVKKPGASVKVSCKSSGYTFTDYYIHWVRQAPGQGLEWMGWINPNSGDTNYAQKFQGRITMTRDTSISTAYLELSRLRSDDTAVFYCARNSGSYSFGYWGQGTLVTVSS
VL: DIQMTQSPSSVSASVGDRVTITCRASQGISSWLAWYQQKPGKAPKLLIFGASSLQSGVPSRFSGSGSGTDFTLTVSSLQPEDFATYYCAQAYSFPFTFGPGTKVDIE
notes: Fab; also called 2M24.1.23
B2: 2M24A.1.6 hFab (Fab, V domains shown)
VH: B1 VH with D31A
VL: B1 VL with A89Q, Y92F
notes: Fab; also called 2M24.1.6
B3: 2M24A.1.11 hFab (Fab, V domains shown)
VH: B1 VH with D31A
VL: B1 VL with A89Q
notes: Fab; also called 2M24.1.11
B4: 2M24A.1.16 (Fab, V domains shown)
VH: B1 VH with S100A
VL: B1 VL with A89Q
notes: Fab; also called 2M24.1.16
B5: 2M24A.1.8 hFab (Fab, V domains shown)
VH: B1 VH with N99A
VL: B1 VL with A89Q, Y92F
notes: Fab; also called 2M24.1.8
B6: 2M24A.1.1 hFab (Fab, V domains shown)
VH: B1 VH with D31A
VL: B1 VL with A89Q, Y92A
notes: Fab; also called 2M24.1.1
B7: 2M24A.1.7 hFab (Fab, V domains shown)
VH: B1 VH with D57A
VL: B1 VL with A89Q, Y92F
notes: Fab; also called 2M24.1.7
B8: 2M24A.1.22 (Fab, V domains shown)
VH: B1 VH with Y107A
VL: B1 VL with A89Q
notes: Fab; also called 2M24.1.22
B9: 2M24A.1.29 (Fab, V domains shown)
VH: B1 VH
VL: B1 VL with A89Q, T97A
notes: Fab; also called 2M24.1.29
B10: 2M24A.1.26 (Fab, V domains shown)
VH: B1 VH
VL: B1 VL with A89Q, F94A
notes: Fab; also called 2M24.1.26
B11: 2M24A.1.25 (Fab, V domains shown)
VH: B1 VH
VL: B1 VL with A89Q, S93A
notes: Fab; also called 2M24.1.25
B12: 2M24A.1.20 (Fab, V domains shown)
VH: B1 VH with F105A
VL: B1 VL with A89Q
notes: Fab; also called 2M24.1.20
B13: 2M24A.1.2 hFab (Fab, V domains shown)
VH: B1 VH with D57A
VL: B1 VL with A89Q, Y92A
notes: Fab; also called 2M24.1.2
B14: 2M24A.1.18 (Fab, V domains shown)
VH: B1 VH with S102A
VL: B1 VL with A89Q
notes: Fab; also called 2M24.1.18
B15: 2M24A.1.19 (Fab, V domains shown)
VH: B1 VH with S104A
VL: B1 VL with A89Q
notes: Fab; also called 2M24.1.19
B16: 2M24A.1.27 (Fab, V domains shown)
VH: B1 VH
VL: B1 VL with A89Q, P95A
notes: Fab; also called 2M24.1.27
B17: 2M24A.1.12 hFab (Fab, V domains shown)
VH: B1 VH with D57A
VL: B1 VL with A89Q
notes: Fab; also called 2M24.1.12
B18: 2M24A.1.10 hFab (Fab, V domains shown)
VH: B1 VH
VL: B1 VL with A89Q, Y92F
notes: Fab; also called 2M24.1.10
B19: 2M24A.1.28 (Fab, V domains shown)
VH: B1 VH
VL: B1 VL with A89Q, F96A
notes: Fab; also called 2M24.1.28
B20: 2M24A.1.5 hFab (Fab, V domains shown)
VH: B1 VH
VL: B1 VL with A89Q, Y92A
notes: Fab; also called 2M24.1.5
B21: 2M24A.1.17 (Fab, V domains shown)
VH: B1 VH with G101A
VL: B1 VL with A89Q
notes: Fab; also called 2M24.1.17
B22: 2M24A.1.24 (Fab, V domains shown)
VH: B1 VH
VL: B1 VL with A89Q, Q90A
notes: Fab; also called 2M24.1.24
B23: 2M24A.1.21 (Fab, V domains shown)
VH: B1 VH with G106A
VL: B1 VL with A89Q
notes: Fab; also called 2M24.1.21
B24: 2M24A.1.13 hFab (Fab, V domains shown)
VH: B1 VH with N99A
VL: B1 VL with A89Q
notes: Fab; also called 2M24.1.13
B25: 2M24A.1.4 hFab (Fab, V domains shown)
VH: B1 VH with Y103A
VL: B1 VL with A89Q, Y92A
notes: Fab; also called 2M24.1.4
B26: 2M24A.1.3 hFab (Fab, V domains shown)
VH: B1 VH with N99A
VL: B1 VL with A89Q, Y92A
notes: Fab; also called 2M24.1.3
B27: 2M24 monospecific antibody (Example 18) (antibody, V domains shown)
VH: B1 VH
VL: B1 VL with A89Q
notes: also called parental 2M24 antibody
B28: 2M24.119 monospecific antibody (antibody, V domains shown)
VH: B1 VH with S24A, I34M, S55E, Q65E, L81M, F94Y, S100T, S102A
VL: B1 VL with F49Y, S53D, V75I, A89Q, S93G, E107K
B29: 2M24.116 monospecific antibody (antibody, V domains shown)
VH: B1 VH with S24A, I34M, S55E, G66E, L81M, F94Y, S100T, S102A
VL: B1 VL with F49Y, S53D, V75I, A89H, E107K
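For delta in this document: Single-point dissociation rate (koff) fit for each variant binding domain, expressed as change versus the parental clone.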

The target of one assay is T1, human Dectin-1 (biosensor tests of …). Nature of the assay: Octet.
Procedure: Variant binding domains were generated, and binding affinity to human Dectin-1 was measured by biosensor (Octet). Single point off rate fits (k off) were determined for each clone and compared to the parental clone (delta), as shown in FIG. 71.
B1 had a delta of 18%.
In the case of B2, the delta stood at 21%.
Take B3: the delta is 16%.
With B4, the delta was 5%.
In turn, B5 yielded a delta of 100%.
B6 gave a delta of 98%.
B7 yielded a delta of 22%.
Consider B8, for which the delta is 15%.
Same read-out and setting: to B9 belongs 23%; to B10, 92%; to B11, 9%.
Molecule B12 displayed a delta of 78%.
On the same count and under the same terms, to B13 belongs 98%; to B14, 9%.
Consider B15, for which the delta turned out to be 22%.
Same read-out and setting: to B16 belongs 19%.
Molecule B17 displayed a delta of 19%.
On the same count and under the same terms, for B18 the value was 18%; for B19, 90%; for B20, 95%.
On to B21, for which the delta was found to be 1%.
As to B22, the delta is 36%.
With B23, the delta is 8%.
On to B24, for which the delta was 100%.

A further assay shares this target. Nature of the assay: Octet response. As to X = 340: time not given here. As to X = 470: time not given here. Background: BLI is a label-free optical method that tracks binding on a fibre tip over time.
As for B1, the “X = 290” value turned out to be 0.128 and the “X = 350” value was 0.104.
Take B2: the “X = 340” value was found to be 0.493 and the “X = 470” value was 0.39.
As for B3, the “X = 340” value came out at 0.499 and the “X = 470” value worked out at 0.418.
For the molecule B4, the “X = 290” value worked out at 0.12 and the “X = 350” value was 0.114.
As to B5, the “X = 340” value came to 0.042 and the “X = 470” value is 0.
For the molecule B6, the “X = 340” value amounted to 0.305 and the “X = 470” value was 0.006.
For the molecule B7, the “X = 340” value amounted to 0.51 and the “X = 470” value came out at 0.398.
Turning to B8, the “X = 290” value came out at 0.131 and the “X = 350” value was 0.112.
On to B9, for which the “X = 340” value was determined as 0.456 and the “X = 470” value was 0.35.
For the molecule B10, the “X = 340” value was 0.231 and the “X = 470” value stood at 0.018.
In the case of B25, the “X = 340” value came out at 0 and the “X = 470” value was found to be 0.
For B11, the “X = 340” value stood at 0.475 and the “X = 470” value was 0.432.
Regarding B12, the “X = 290” value turned out to be 0.0981 and the “X = 350” value was 0.0215.
As for B13, the “X = 340” value came to 0.331 and the “X = 470” value was 0.006.
Turning to B14, the “X = 290” value is 0.138 and the “X = 350” value amounted to 0.124.
In the case of B15, the “X = 290” value came out at 0.126 and the “X = 350” value was 0.0983.
For B16, the “X = 340” value turned out to be 0.483 and the “X = 470” value amounted to 0.393.
In the case of B17, the “X = 340” value worked out at 0.49 and the “X = 470” value was determined as 0.399.
As for B18, the “X = 340” value came out at 0.49 and the “X = 470” value stood at 0.402.
For B19, the “X = 340” value was 0.309 and the “X = 470” value came to 0.031.
Turning to B20, the “X = 340” value amounted to 0.3 and the “X = 470” value worked out at 0.014.
Consider B26, for which the “X = 340” value worked out at 0 and the “X = 470” value was 0.
Regarding B21, the “X = 290” value was 0.131 and the “X = 350” value was 0.129.
B22: the “X = 290” value came out at 0.115 and the “X = 350” value was determined as 0.073.
B23: the “X = 290” value amounted to 0.125 and the “X = 350” value was found to be 0.114.
For the molecule B24, the “X = 340” value was 0.028 and the “X = 470” value is 0.

The target of the next assay is T2, human Dectin-1 isoform A. Nature of the assay: flow cytometry on HEK Blue Dectin 1a cells (MFI).
B27 showed an EC50 of 0.343 nM.
Regarding B28, it took 0.393 nM to reach a half-maximal effect (EC50).
With B29, a half-maximal response (EC50) required 0.37 nM. This EC50 and that of the molecule before are within 1.5-fold of each other.
